How the values were obtained:
[1] = target: T1, recombinant uPAR-Biotin (human, UniProt Q03405 23-305, biotin); test: BLI; BLItz; streptavidin biosensors coated with 16.7 μg/mL recombinant uPAR-Biotin; 400nM, 200nM and 100nM of VH, VH-Fc, DbTE, association 2 min; dissociation in DPBS 4 min; details: both partners purified
T1 construct: May be one of the bought proteins (uPAR-His or uPAR-Fc) after biotinylation

[2] = target: T2, Human uPAR-His recombinant protein (human, UniProt Q03405 23-305); test: ELISA; uPAR-His coated at 50 ng/well at 4°C overnight; 3-fold serially diluted binders 1 hour at 37°C; VH detected by anti-FLAG M2-HRP, VH-Fc or DbTE by HRP goat anti-human IgG1 Fc; details: both partners purified
T2 construct: also called recombinant human uPAR; CD87; source: bought: R&D system

[3] = target: the molecule itself; test: SEC; Superdex 200 Increase 10/300 GL; 200 μg of filtered antibody; DPBS, 0.5 mL/min; size from molecular weight calibration curves

T1 sequence (Q03405 23-305): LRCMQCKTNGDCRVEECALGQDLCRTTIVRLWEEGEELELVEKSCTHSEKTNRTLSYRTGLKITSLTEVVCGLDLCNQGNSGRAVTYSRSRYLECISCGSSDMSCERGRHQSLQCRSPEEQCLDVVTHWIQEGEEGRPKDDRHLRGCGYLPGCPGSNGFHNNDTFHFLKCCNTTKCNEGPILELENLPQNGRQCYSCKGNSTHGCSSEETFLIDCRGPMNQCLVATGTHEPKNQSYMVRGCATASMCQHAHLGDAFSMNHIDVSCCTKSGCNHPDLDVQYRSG
T2 sequence (Q03405 23-305): as above

| Binder | Kd [1] | koff [1] | kon [1] | EC50 [2] | stoichiometry N [3] |
| --- | --- | --- | --- | --- | --- |
| VH 3 (VHH, Human single VH domain antibody (not a camelid VHH); Monomeric by SEC; also called clone 3; anti-uPAR VH 3; source: E.coli TopF expression system, purified on Ni-NTA columns) VHH: EVQLVESGGGLVQPGGSLRLSCAASGFTFSRYWMSWVRQAPGKALEWIGEINHSGSTNYNPSLKSLVTISRDNSKNTLYLQMNSLRAEDTATYYCARSLVPALSYYYYYGMDVWGQGTTVTVSS | 17.1 nM | 0.0014 s⁻¹ | 79000 M⁻¹ s⁻¹ | 12.1 ± 0.8 nM | – |
| VH-Fc 3 (Fc fusion, human, VH 3 domain, as m1; VH cloned into the pcDNA-IgG1 Fc vector; source: Expi293, transiently transfected, purified by protein A resin; not shown: Fc (human IgG1), C-terminal, kept) VH: EVQLVESGGGLVQPGGSLRLSCAASGFTFSRYWMSWVRQAPGKALEWIGEINHSGSTNYNPSLKSLVTISRDNSKNTLYLQMNSLRAEDTATYYCARSLVPALSYYYYYGMDVWGQGTTVTVSS | 9.6 nM | 0.0012 s⁻¹ | 120000 M⁻¹ s⁻¹ | 64.3 ± 2.3 nM | – |
| VH 115 (VHH, Human single VH domain antibody (not a camelid VHH); source: E.coli TopF expression system, purified on Ni-NTA columns) VHH: EVQLVESGGGLVQPGGSLRLSCKGSGFTFGDYAIGWVRQAPGQRLEWIGWINTNSGSPKYAQGFTGRFTISRDNSKNTLYLQMNSLRAEDTAVYYCATDVVVPWGQGSQVTVSS | 1.7 nM | 3.6e-05 s⁻¹ | 21000 M⁻¹ s⁻¹ | 34.2 ± 3.5 nM | 2 |
| VH-Fc 115 (Fc fusion, human, VH cloned into the pcDNA-IgG1 Fc vector; source: Expi293, transiently transfected, purified by protein A resin; not shown: Fc (human IgG1), C-terminal, kept) VH: EVQLVESGGGLVQPGGSLRLSCKGSGFTFGDYAIGWVRQAPGQRLEWIGWINTNSGSPKYAQGFTGRFTISRDNSKNTLYLQMNSLRAEDTAVYYCATDVVVPWGQGSQVTVSS | 71.1 nM | 0.0024 s⁻¹ | 33000 M⁻¹ s⁻¹ | 6.6 ± 0.2 nM | 2 |

— article PMC10593477 (Frontiers in Oncology, 2023)
